Experimental data from US20100169988A1 (published 2010).

Target: APP-TAP-AICD (human, UniProt P05067 18-695)
Assay: streptavidin purification of APP-TAP-AICD from brain homogenate; iTRAQ 116/114, transgenic mouse 75 vs control mouse 72; MALDI-TOF/TOF;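 note: relative protein abundance in the transgenic versus control pull-down, limited to proteins with high quality scores and above-average enrichment, without full normalization across the whole measurement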
From the text: Shown are all proteins that have high quality scores and are enriched above average in the m75 sample. Purified bait protein is given underlined. Other already known interaction partners of AICD or putatively biologically relevant proteins are given in bold. As full normalization over the entire measurement was not possible through the GPS explorer software suite, this conservative estimate had to be taken for determining the enriched vs. the non-enriched proteins. […] Ranking is in order of abundance ratio.

Binder	iTRAQ ratio
Creatine kinase; B chain (enzyme) not shown	5.32
Excitatory amino acid transporter 2 (Sodium-dependent glutamate/aspartate transporter 2) (other, mouse, UniProt P43006 1-572, looked up, also called EAA2_MOUSE; GLT-1) MASTEGANNMPKQVEVRMHDSHLSSDEPKHRNLGMRMCDKLGKNLLLSLTVFGVILGAVCGGLLRLASPIHPDVVMLIAFPGDILMRMLKMLILPLIISSLITGLSGLDAKASGRLGTRAMVYYMSTTIIAAVLGVILVLAIHPGNPKLKKQLGPGKKNDEVSSLDAFLDLIRNLFPENLVQACFQQIQTVTKKVLVAPPSEEANTTKAVISMLNETMNEAPEETKIVIKKGLEFKDGMNVLGLIGFFIAFGIAMGKMGEQAKLMVEFFNILNEIVMKLVIMIMWYSPLGIACLICGKIIAIKDLEVVARQLGMYMITVIVGLIIHGGIFLPLIYFVVTRKNPFSFFAGIFQAWITALGTASSAGTLPVTFRCLEDNLGIDKRVTRFVLPVGATINMDGTALYEAVAAIFIAQMNGVILDGGQIVTVSLTATLASIGAASIPSAGLVTMLLILTAVGLPTEDISLLVAVDWLLDRMRTSVNVVGDSFGAGIVYHLSKSELDTIDSQHRMQEDIEMTKTQSIYDDKNHRESNSNQCVYAAHNSVVIDECKVTLAANGKSADCSVEEEPWKREK	4.44
Aspartate aminotransferase; cytoplasmic (Transaminase A) (enzyme, mouse, UniProt P05201 2-413, looked up) APPSVFAQVPQAPPVLVFKLTADFRDDPDPRKVNLGVGAYRTDESQPWVLPVVRKVEQKIANDNSLNHEYLPILGLAEFRSCASRLVLGDNSLAIRENRVGGVQSLGGTGALRIGADFLGRWYNGTDNKNTPIYVSSPTWENHNAVFSAAGFKDIRPYCYWDAEKRGLDLQGFLNDLENAPEFSIFVLHACAHNPTGTDPTPEQWKQIAAVMQRRFLFPFFDSAYQGFASGDLEKDAWAIRYFVSEGFELFCAQSFSKNFGLYNERVGNLTVVGKESDSVLRVLSQMEKIVRITWSNPPAQGARIVAATLSDPELFKEWKGNVKTMADRILTMRSELRARLEALKTPGTWSHITEQIGMFSFTGLNPKQVEYLVNEKHIYLLPSGRINMCGLTTKNLDYVATSIHEAVTKIQ	4.04
ATP synthase gamma chain; mitochondrial precursor (enzyme, mouse, UniProt Q91VR2 26-298, looked up) ATLKDITRRLKSIKNIQKITKSMKMVAAAKYARAERELKPARVYGTGSLALYEKADIKAPEDKKKHLIIGVSSDRGLCGAIHSSVAKQMKNEVAALTAAGKEVMIVGVGEKIKGILYRTHSDQFLVSFKDVGRKPPTFGDASVIALELLNSGYEFDEGSIIFNQFKSVISYKTEEKPIFSLNTIATAETMSIYDDIDADVLQNYQEYNLANLIYYSLKESTTSEQSARMTAMDNASKNASDMIDKLTLTFNRTRQAVITKELIEIISGAAALD	3.98
Alpha enolase (2-phospho-D-glycerate hydro-lyase) (Non-neural enolase) (NNE) (enzyme, mouse, UniProt P17182 2-434, looked up) SILRIHAREIFDSRGNPTVEVDLYTAKGLFRAAVPSGASTGIYEALELRDNDKTRFMGKGVSQAVEHINKTIAPALVSKKVNVVEQEKIDKLMIEMDGTENKSKFGANAILGVSLAVCKAGAVEKGVPLYRHIADLAGNPEVILPVPAFNVINGGSHAGNKLAMQEFMILPVGASSFREAMRIGAEVYHNLKNVIKEKYGKDATNVGDEGGFAPNILENKEALELLKTAIAKAGYTDQVVIGMDVAASEFYRSGKYDLDFKSPDDPSRYITPDQLADLYKSFVQNYPVVSIEDPFDQDDWGAWQKFTASAGIQVVGDDLTVTNPKRIAKAASEKSCNCLLLKVNQIGSVTESLQACKLAQSNGWGVMVSHRSGETEDTFIADLVVGLCTGQIKTGAPCRSERLAKYNQILRIEEELGSKAKFAGRSFRNPLAK	3.9
Clathrin light chain A (Lca) (other, mouse, UniProt O08585 1-235, looked up) MAELDPFGAPAGAPGGPALGNGVAGAGEEDPAAAFLAQQESEIAGIENDEAFAILDGGAPGRATRRAAGGPDAVDGVMNGEYYQESNGPTDSYAAISEVDRLQSEPESIRKWREEQTERLEALDANSRKQEAEWKEKAIKELEEWYARQDEQLQKTKANNRVADEAFYKQPFADLIGYVAAEEAFVNDIDESSPGTEWERVARLCDFNPKSSKQAKDVSRMRSVLISLKQAPLVH	3.98

The next lines start with the values.

iTRAQ ratio	Binder
4.61	Phosphate carrier protein; mitochondrial precursor (PTP) (other, mouse, UniProt Q8VEM8 46-357, looked up) AVEEYSCEFGSMKYYALCGFGGVLSCGLTHTAVVPLDLVKCRMQVDPQKYKGIFNGFSITLKEDGVRGLAKGWAPTLIGYSMQGLCKFGFYEVFKALYSNILGEENTYLWRTSLYLASSASAEFFADIALAPMEAAKVRIQTQPGYANTLREAVPKMYKEEGLNAFYKGVAPLWMRQIPYTMMKFACFERTVEALYKFVVPKPRSECTKAEQLVVTFVAGYIAGVFCAIVSHPADSVVSVLNKEKGSTASQVLQRLGFRGVWKGLFARIIMIGTLTALQWFIYDSVKVYFRLPRPPPPEMPESLKKKLGLTE
4.54	Glyceraldehyde-3-phosphate dehydrogenase (GAPDH) (enzyme) not shown
3.82	Synaptotagmin-1 (Synaptotagmin I) (SytI) (p65) (other, mouse, UniProt P46096 1-421, looked up, also called SYT1_MOUSE) MVSASRPEALAAPVTTVATLVPHNATEPASPGEGKEDAFSKLKQKFMNELHKIPLPPWALIAIAIVAVLLVVTCCFCVCKKCLFKKKNKKKGKEKGGKNAINMKDVKDLGKTMKDQALKDDDAETGLTDGEEKEEPKEEEKLGKLQYSLDYDFQNNQLLVGIIQAAELPALDMGGTSDPYVKVFLLPDKKKKFETKVHRKTLNPVFNEQFTFKVPYSELGGKTLVMAVYDFDRFSKHDIIGEFKVPMNTVDFGHVTEEWRDLQSAEKEEQEKLGDICFSLRYVPTAGKLTVVILEAKNLKKMDVGGLSDPYVKIHLMQNGKRLKKKKTTIKKNTLNPYYNESFSFEVPFEQIQKVQVVVTVLDYDKIGKNDAIGKVFVGYNSTGAELRHWSDMLANPRRPIAQWHTLQVEEEVDAMLAVKK
3.99	L-lactate dehydrogenase B chain (LDH-B) (LDH heart subunit) (enzyme) not shown
4.61	Triosephosphate isomerase (TIM) (Triose-phosphate isomerase) (enzyme, mouse, UniProt P17751 2-249, looked up) APTRKFFVGGNWKMNGRKKCLGELICTLNAANVPAGTEVVCAPPTAYIDFARQKLDPKIAVAAQNCYKVTNGAFTGEISPGMIKDLGATWVVLGHSERRHVFGESDELIGQKVSHALAEGLGVIACIGEKLDEREAGITEKVVFEQTKVIADNVKDWSKVVLAYEPVWAIGTGKTATPQQAQEVHEKLRGWLKSNVNDGVAQSTRIIYGGSVTGATCKELASQPDVDGFLVGGASLKPEFVDIINAKQ
5.96	Malate dehydrogenase; cytoplasmic (enzyme, mouse, UniProt P14152 2-334, looked up) SEPIRVLVTGAAGQIAYSLLYSIGNGSVFGKDQPIILVLLDITPMMGVLDGVLMELQDCALPLLQDVIATDKEEIAFKDLDVAVLVGSMPRREGMERKDLLKANVKIFKSQGTALEKYAKKSVKVIVVGNPANTNCLTASKSAPSIPKENFSCLTRLDHNRAKSQIALKLGVTADDVKNVIIWGNHSSTQYPDVNHAKVKLQGKEVGVYEALKDDSWLKGEFITTVQQRGAAVIKARKLSSAMSAAKAIADHIRDIWFGTPEGEFVSMGVISDGNSYGVPDDLLYSFPVVIKNKTWKFVEGLPINDFSREKMDLTAKELTEEKETAFEFLSSA
4.68	Ubiquitin carboxyl-terminal hydrolase isozyme L1 (UCH-L1) (enzyme, mouse, UniProt Q9R0P9 1-220, looked up, also called UCHL1_MOUSE) MQLKPMEINPEMLNKVLAKLGVAGQWRFADVLGLEEETLGSVPSPACALLLLFPLTAQHENFRKKQIEELKGQEVSPKVYFMKQTIGNSCGTIGLIHAVANNQDKLEFEDGSVLKQFLSETEKLSPEDRAKCFEKNEAIQAAHDSVAQEGQCRVDDKVNFHFILFNNVDGHLYELDGRMPFPVNHGASSEDSLLQDAAKVCREFTEREQGEVRFSAVALC
4.71	Pyruvate kinase; isozyme M2 (enzyme, also called pyruvate kinase isozyme M1/2) not shown
